From patent publication US20120129720, “APTAMER THAT RECOGNIZES PEPTIDE” (KANAGAWA PREFECTURAL HOSPITAL ORGANIZATION, published 2012) come the findings set out here.

For data set [1], the target named is T1, His-MIF (His-tag/T7 gene 10 leader/Xpress-MIF fusion) (UniProt P14174 P14174:1-115).
T1 chain: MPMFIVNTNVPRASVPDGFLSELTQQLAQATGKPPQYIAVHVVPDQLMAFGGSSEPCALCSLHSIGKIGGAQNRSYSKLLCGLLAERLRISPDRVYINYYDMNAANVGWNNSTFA
The data set is described as follows: SPR; 600 nM His-MIF. The conditions noted are these: MIF 115 aa; ATGen. On the procedure:
(§1) A molecular interaction between each of the RNA aptamers and each of fusion proteins, i.e., a binding ability of each of the RNA aptamers to each of the fusion proteins was analyzed using surface plasmon resonance. The analysis of the binding ability was performed using BiacoreX (GE Healthcare UK Ltd.) according to the instruction thereof. Specifically, first, polyadenine having 20 bases was added to the 3′-end of the RNA aptamer. Thus, polyadenine-added RNA aptamer was prepared. This was then heated at 95° C. for 5 minutes and rapidly cooled on ice. Biotinylated polythymine having 20 bases obtained by biotinylating the 5′-end of polythymine had been bound to a streptavidin chip (Sensor chip SA, GE Healthcare UK Ltd.). The polyadenine-added RNA aptamer was introduced into a flow cell on the streptavidin chip using a running buffer. At this stage, the polyadenine-added RNA aptamer was immobilized on the chip via the biotinylated polythymine by complementary binding between poly A of the polyadenine-added RNA aptamer and the biotinylated polythymine. The polyadenine-added RNA aptamer was caused to bind to the biotinylated polythymine until a resonance unit (RU) (resonance unit; 1 RU=1 pg/mm²) reaches 700 RU. Subsequently, HBS (Hepes Buffered Saline) containing the fusion protein with a predetermined concentration was introduced into the chip using a running buffer, and a signal (RU) was measured. The composition of the running buffer includes 10 mmol/L HEPES (4-(2-hydroxyethyl)-1-piperazine ethanesulfonic acid), 150 mmol/L sodium chloride, 0.1 mmol/L magnesium acetate, and 0.01% Tween (registered trademark) 20 (pH 7.2). As a control, an introduction of the fusion protein and a measurement of a signal were performed in the same manner as described above using a chip to which biotinylated polythymine had been bound, on which no polyadenine-added RNA aptamer had been immobilized.
A binding ability of each of these RNA aptamers to His-MIF was analyzed by surface plasmon resonance in the same manner as in “1. (4) Molecular interaction analysis” of Example 1.

Data set [2] concerns the target T1, His-MIF (His-tag/T7 gene 10 …). In words: SPR; 600 nM His-MIF. As to conditions: MIF 115 aa, ATGen. On the procedure:
as §1
A binding ability of each of the RNA pools in the respective rounds to His-MIF was analyzed by surface plasmon resonance in the same manner as in “1. (4) Molecular interaction analysis” of Example 1. […] N40 (control RNA) also was analyzed in the same manner as mentioned above.

Data set [3] shares this target. The data set is described as follows: SPR; 10 mM HEPES, 150 mM NaCl, 0.1 mM Mg acetate, 0.01% Tween 20, pH 7.2; RNA immobilised. The conditions noted are these: MIF 115 aa; ATGen; label: biotin-T20 hybridised to tail; stem-loop. On the procedure:
as §1, with “The polyadenine-added RNA aptamer was caused to bind to the biotinylated polythymine until a resonance unit (RU) (resonance unit; 1 RU=1 pg/mm²) reaches 700 RU.” left out, “The composition of the running buffer includes 10 mmol/L HEPES (4-(2-hydroxyethyl)-1-piperazine ethanesulfonic acid), 150 mmol/L sodium chloride, 0.1 mmol/L magnesium acetate, and 0.01% Tween (registered trademark) 20 (pH 7.2). As a control, an introduction of the fusion protein and a measurement of a signal were performed in the same manner as described above using a chip to which biotinylated polythymine had been bound, on which no polyadenine-added RNA aptamer had been immobilized.” left out

For data set [4] the target is unchanged. The data set is described as follows: SPR; 600 nM His-MIF; excellent binding. As to conditions: MIF 115 aa; ATGen. Here is the method:
as §1, with “The polyadenine-added RNA aptamer was caused to bind to the biotinylated polythymine until a resonance unit (RU) (resonance unit; 1 RU=1 pg/mm²) reaches 700 RU.” left out, “The composition of the running buffer includes 10 mmol/L HEPES (4-(2-hydroxyethyl)-1-piperazine ethanesulfonic acid), 150 mmol/L sodium chloride, 0.1 mmol/L magnesium acetate, and 0.01% Tween (registered trademark) 20 (pH 7.2). As a control, an introduction of the fusion protein and a measurement of a signal were performed in the same manner as described above using a chip to which biotinylated polythymine had been bound, on which no polyadenine-added RNA aptamer had been immobilized.” left out
A binding ability of each of these RNA aptamers to His-MIF was analyzed by surface plasmon resonance in the same manner as in “1. […]

For data set [5] the target is unchanged. The data set is described as follows: SPR; same as shot47. The conditions noted are these: MIF 115 aa, ATGen, stem-loop. On the procedure: as §1, with “The polyadenine-added RNA aptamer was caused to bind to the biotinylated polythymine until a resonance unit (RU) (resonance unit; 1 RU=1 pg/mm²) reaches 700 RU.” left out, “The composition of the running buffer includes 10 mmol/L HEPES (4-(2-hydroxyethyl)-1-piperazine ethanesulfonic acid), 150 mmol/L sodium chloride, 0.1 mmol/L magnesium acetate, and 0.01% Tween (registered trademark) 20 (pH 7.2). As a control, an introduction of the fusion protein and a measurement of a signal were performed in the same manner as described above using a chip to which biotinylated polythymine had been bound, on which no polyadenine-added RNA aptamer had been immobilized.” left out
A binding ability of each of downsized RNA aptamers to His-MIF as a fusion protein was analyzed by the molecular interaction analysis. […]

B1: His_5 (ssRNA)
RNA: GGGACGCUCACGUACGCUCAGAACCCGUAUUGGUCACAGGUGGAUUGGUCUAUAUUGUUAUCAGUGCCUGGACGUGCAGU
modifications: 3' A20 tail for capture
For the molecule B1, in data set [1], the binding result was “binds”.

B2: shot47 (ssRNA)
RNA: GGGACGCUCACGUACGCUCACGUCCGAUCGAUACUGGUAUAUUGGCGCCUUCGUGGAAUGUCAGUGCCUGGACGUGCAGU
modifications: 3' A20 tail for capture
In turn, B2 gave a binding signal in data set [2] (label: biotin-T20 hybridised to tail, stem-loop) of 1.88 His-MIF/RNA bonds. The molecule further came in with an equilibrium dissociation constant (Kd) in data set [3] of 3.78 pM.

B3: #704 (ssRNA)
RNA: GGGACGCUCACGUACGCUCAUGUUCCUUUGGGUUAUUGGCUCCUUGUUGACCAGGGGAUGUCAGUGCCUGGACGUGCAGU
modifications: 3' A20 tail for capture
As to B3, the binding signal in data set [2] amounted to 0.96 His-MIF/RNA bonds.

B4: His_3 (ssRNA)
RNA: GGGACGCUCACGUACGCUCAGGUGUACUGGCACUACUGAAAUUUCAUUUGAGUAGGUCUGUCAGUGCCUGGACGUGCAGU
modifications: 3' A20 tail for capture
For B4, the binding result in data set [1] is recorded as “binds”.

B5: #746 (ssRNA)
RNA: GGGACGCUCACGUACGCUCAGGUGAAUUGGCACUUCUUUAUCUACGGAUCGAGUCGGAUGUCAGUGCCUGGACGUGCAGU
modifications: 3' A20 tail for capture
As for B5, the binding signal in data set [2] was found to be 0.5 His-MIF/RNA bonds.

B6: His_1 (ssRNA)
RNA: GGGACGCUCACGUACGCUCAGGUGAACUGGUCCGCAUUUAGCUUUCUUAUUUGCGGGUAUUCAGUGCCUGGACGUGCAGU
modifications: 3' A20 tail for capture
B6: the binding result in data set [4] is “binds”.

B7: His_4 (ssRNA)
RNA: GGGACGCUCACGUACGCUCAUAAGGGUGUACUGGCGAUUGUUGGGACGCACUUCAAUUUGUCAGUGCCUGGACGUGCAGU
modifications: 3' A20 tail for capture
For B7, in data set [1], the binding result was “binds”.

B8: #713 (ssRNA)
RNA: GGGACGCUCACGUACGCUCACAACACUCGAAGGGUUUAUUGGCCCCACCAUGGUGGAAUGUCAGUGCCUGGACGUGCAGU
modifications: 3' A20 tail for capture
Take B8: in data set [2], the binding signal came out at 0.88 His-MIF/RNA bonds.

B9: #727 (ssRNA)
RNA: GGGACGCUCACGUACGCUCACUCAGGUGAUUGGCGCUAUUUAUCGAUCGAUAAUUGAAUGUCAGUGCCUGGACGUGCAGU
modifications: 3' A20 tail for capture
B9 gave a binding signal in data set [2] of 1.05 His-MIF/RNA bonds.

B10: #708 (ssRNA)
RNA: GGGACGCUCACGUACGCUCACGGUUAUUGGCGGAGGAUCUGUCAUGGCAUGCCUCGACUGUCAGUGCCUGGACGUGCAGU
modifications: 3' A20 tail for capture
In turn, B10 gave a binding signal in data set [2] of 1.16 His-MIF/RNA bonds.

B11: #701 (ssRNA)
RNA: GGGACGCUCACGUACGCUCACCGGGUUAUUGGCGCAAUAUUGGUAUCCUGUAUUGGUCUGUCAGUGCCUGGACGUGCAGU
modifications: 3' A20 tail for capture
B11 gave a binding signal in data set [2] of 1.32 His-MIF/RNA bonds.

B12: #714 (ssRNA)
RNA: GGGACGCUCACGUACGCUCAGGUUUAUUGGUGCCGUGUAGUGGAAUAUCAGUGCCUGGACGUGCAGU
modifications: 3' A20 tail for capture
Take B12: in data set [2], the binding signal worked out at 1.01 His-MIF/RNA bonds.

B13: #47s (ssRNA)
RNA: GGGUACGCUCAGGUAUAUUGGCGCCUUCGUGGAAUGUCAGUGCCUGGACGUGCAGU
modifications: 3' A20 tail for capture
With B13, in data set [5], the binding result is “binds”.

B14: His_10 (ssRNA)
RNA: GGGACGCUCACGUACGCUCAUUAGCUUAGCUUCAUGCCCGGGUGUACUGGAGAUCUCUUAUCAGUGCCUGGACGUGCAGU
modifications: 3' A20 tail for capture
With B14, the binding result in data set [1] is recorded as “binds”.

B15: shot47sss (ssRNA)
RNA: GGGUAUAUUGGCGCCUUCGUGGAAUGUCAGUGCCUGG
modifications: 3' A20 tail for capture
With B15, the binding result in data set [5] (label: biotin-T20 hybridised to tail (ELISA)) is on record as “binds”.

B16: His_6 (ssRNA)
RNA: GGGACGCUCACGUACGCUCAGGUGUAUUGGAUUUGCUCCGAGGGUGUAGACCCCACAGAUUCAGUGCCUGGACGUGCAGU
modifications: 3' A20 tail for capture
Consider B16, for which the binding result in data set [1] is recorded as “binds”.

B17: His_2 (ssRNA)
RNA: GGGACGCUCACGUACGCUCAGGUGAAUUGGCCGCCGUUCUUUCCGUGGAAUGACGCGAUGUCAGUGCCUGGACGUGCAGU
modifications: 3' A20 tail for capture
For B17, in data set [1], the binding result is given as “binds”.

B18: #716 (ssRNA)
RNA: GGGACGCUCACGUACGCUCACCUGUUUUGUCUAGGUUUAUUGGCGCUUAUUCCUGGAAUGUCAGUGCCUGGACGUGCAGU
modifications: 3' A20 tail for capture
B18 showed a binding signal in data set [2] of 0.99 His-MIF/RNA bonds.

B19: #733 (ssRNA)
RNA: GGGACGCUCACGUACGCUCACUUCCCUAGACCCUCCAGGUUACAGGCGCCGCCCGGAAUGUCAGUGCCUGGACGUGCAGU
modifications: 3' A20 tail for capture
In the case of B19, the binding signal in data set [2] was 0.86 His-MIF/RNA bonds.
